This note sets out measurements from publication PMC11566999.

The target in the series is T1, YTH-YPet (UniProt Q9Y5A9 380-579).
T1 sequence: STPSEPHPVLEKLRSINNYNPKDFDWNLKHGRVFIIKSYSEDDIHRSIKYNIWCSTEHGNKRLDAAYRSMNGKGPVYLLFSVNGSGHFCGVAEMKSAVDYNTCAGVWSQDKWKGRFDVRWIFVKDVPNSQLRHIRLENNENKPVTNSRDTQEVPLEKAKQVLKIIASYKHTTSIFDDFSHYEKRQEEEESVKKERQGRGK
In words: EMSA.

Regarding CCGGACUGUACAUGAGGAUCACCCAUGU (structured_RNA) [aRNA], the binding result is reported as “no binding”.
